The assay has as its target BST-2 with N-terminal SmBiT (UniProt Q10589). As to the kind of experiment: split reporter (BiFC, NanoBiT); HEK293T cells in 96-well plates co-transfected 1:1 with plasmids for the Vpu and BST-2 LgBiT/SmBiT fusions; Nano-Glo Live Cell Substrate added, luminescence read in live cells; negative control HaloTag with SmBiT.
Sequence of UniProt Q10589 (Q10589 1-161): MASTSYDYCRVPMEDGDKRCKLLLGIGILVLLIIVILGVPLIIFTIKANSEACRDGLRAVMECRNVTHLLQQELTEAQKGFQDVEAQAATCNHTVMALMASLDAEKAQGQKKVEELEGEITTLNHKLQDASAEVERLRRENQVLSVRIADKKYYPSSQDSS

Sequence of Vpu with C-terminal LgBiT (P05919 whole entry): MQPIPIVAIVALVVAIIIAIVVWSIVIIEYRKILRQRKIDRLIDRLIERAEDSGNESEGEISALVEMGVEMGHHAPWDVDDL

In turn, “Vpu with C-terminal LgBiT (from UniProt P05919 1-82) (natural protein)” showed a fold luminescence over control 15 min after adding substrate of 100 fold; a fold luminescence over control (Vpu with C-terminal LgBiT and HaloTag with SmBiT) of 95 fold.

Source of the values: publication PMC8431494.
